Experimental data from the supplement of paper PMC12855868.

B1: library; numbered along this chain (parent)
chain: MAAAGGARLLRAASAVLGGPAGRWLHHAGSRAGSSGLLRNRGPGGSAEASRSLSVSARARSSSEDKITVHFINRDGETLTTKGKVGDSLLDVVVENNLDIDGFGACEGTLACSTCHLIFEDHIYEKLDAITDEENDMLDLAYGLTDRSRLGCQICLTKSMDNMTVRVPETVADARQSIDVGKTS

Variants of: B1
Assay: scaled log2 fold change in cell abundance, elesclomol vs control (0 = silent mean, 1 = nonsense mean) (scaled log2 ratio); higher = higher viability under elesclomol (loss of FDX1 cuproptosis function)
Conditions: glucose 10 mM
Experimental: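 Deep mutational scan of full-length human FDX1: a pooled saturation-mutagenesis ORF library (every residue 2-184 mutated to all 19 amino acids plus stop, and silent codons where available) was expressed by lentivirus in FDX1-knockout ABC1 (14 days) or HEK293T (11 days) cells grown with elesclomol (ES) or DMSO control. Variant abundance came from ORF sequencing. The log2 fold change (ES vs control, mean of duplicates) was centred on the silent-variant mean (0) and scaled to the nonsense-variant mean (1). Higher values mean greater viability under ES, i.e. loss of FDX1 function in cuproptosis.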

[1] = with ABC1 FDX1 KO, elesclomol 5 nM, 14 days
[2] = with HEK293T FDX1 KO, elesclomol 40 nM, 11 days
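Note: variant abundance is its share of total variant reads in each endpoint sample, from next-generation sequencing of the integrated ORF PCR-amplified out of genomic DNA.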

T81Y
scaled log2 fold change [1]: -0.015
scaled log2 fold change [2]: -0.0662

T81P
scaled log2 fold change [1]: 0.103
scaled log2 fold change [2]: 1.32

T81F
scaled log2 fold change [1]: 0.141

T81E
scaled log2 fold change [1]: 0.273
scaled log2 fold change [2]: 0.0361

T81D
scaled log2 fold change [1]: -0.11
scaled log2 fold change [2]: -0.616

T81R
scaled log2 fold change [1]: 0.181
scaled log2 fold change [2]: 0.0327

T81C
scaled log2 fold change [1]: 0.0149
scaled log2 fold change [2]: -0.28

T81L
scaled log2 fold change [1]: 0.127
scaled log2 fold change [2]: 0.885

T81H
scaled log2 fold change [1]: 0.282
scaled log2 fold change [2]: -0.297

T81G
scaled log2 fold change [1]: 0.204
scaled log2 fold change [2]: -1.09

T81M
scaled log2 fold change [1]: -0.27
scaled log2 fold change [2]: 0.26

T81I
scaled log2 fold change [1]: 0.266
scaled log2 fold change [2]: 0.81

T81K
scaled log2 fold change [1]: 0.0566
scaled log2 fold change [2]: 0.178

T81A
scaled log2 fold change [1]: 0.0513
scaled log2 fold change [2]: 1.11

T81V
scaled log2 fold change [1]: 0.0264
scaled log2 fold change [2]: -0.0523

T81N
scaled log2 fold change [1]: 0.308
scaled log2 fold change [2]: 0.885

T81W
scaled log2 fold change [1]: -0.0129
scaled log2 fold change [2]: -0.543

T81Q
scaled log2 fold change [1]: -0.159
scaled log2 fold change [2]: -0.00467

T81S
scaled log2 fold change [1]: -0.82
scaled log2 fold change [2]: 1.14

K82C
scaled log2 fold change [1]: 0.296
scaled log2 fold change [2]: 0.165

K82A
scaled log2 fold change [1]: 0.109

K82F
scaled log2 fold change [1]: -0.531
scaled log2 fold change [2]: -0.243

K82S
scaled log2 fold change [1]: -0.449

K82L
scaled log2 fold change [1]: 0.0365
scaled log2 fold change [2]: -0.76

K82T
scaled log2 fold change [1]: -0.0344
scaled log2 fold change [2]: 0.0849

K82Q
scaled log2 fold change [1]: -0.471

K82R
scaled log2 fold change [1]: -0.619
scaled log2 fold change [2]: -0.611

K82H
scaled log2 fold change [1]: -0.223
scaled log2 fold change [2]: -0.0273

K82P
scaled log2 fold change [1]: -0.285
scaled log2 fold change [2]: -0.31

K82M
scaled log2 fold change [1]: 0.172

K82E
scaled log2 fold change [1]: 0.0245
scaled log2 fold change [2]: -0.309

K82D
scaled log2 fold change [1]: -0.58
scaled log2 fold change [2]: -0.293

K82Y
scaled log2 fold change [1]: -0.328
scaled log2 fold change [2]: -0.154

K82I
scaled log2 fold change [1]: 0.215
scaled log2 fold change [2]: 0.419

K82N
scaled log2 fold change [1]: -0.873
scaled log2 fold change [2]: 0.352

K82G
scaled log2 fold change [1]: -0.688
scaled log2 fold change [2]: -0.137

K82V
scaled log2 fold change [1]: -0.0519
scaled log2 fold change [2]: 0.989

K82W
scaled log2 fold change [1]: 0.0928
scaled log2 fold change [2]: -0.0187

R74Y
scaled log2 fold change [1]: -0.0737
scaled log2 fold change [2]: 0.186

R74V
scaled log2 fold change [1]: 0.486

R74M
scaled log2 fold change [1]: -0.486
scaled log2 fold change [2]: 0.445

R74Q
scaled log2 fold change [1]: 0.323
scaled log2 fold change [2]: -0.599

R74W
scaled log2 fold change [1]: 0.234

R74I
scaled log2 fold change [1]: -0.228
scaled log2 fold change [2]: 1.14

R74H
scaled log2 fold change [1]: -0.0392
scaled log2 fold change [2]: -0.565

R74E
scaled log2 fold change [1]: -0.261

R74F
scaled log2 fold change [1]: 0.533
scaled log2 fold change [2]: -0.0248

R74L
scaled log2 fold change [1]: 0.361
scaled log2 fold change [2]: -0.577

R74P
scaled log2 fold change [1]: 0.11

R74N
scaled log2 fold change [1]: -1.08
scaled log2 fold change [2]: 1.31

R74C
scaled log2 fold change [1]: 0.324
scaled log2 fold change [2]: 0.937

R74S
scaled log2 fold change [1]: 0.363
scaled log2 fold change [2]: 0.881

R74T
scaled log2 fold change [1]: -0.0213
scaled log2 fold change [2]: -0.108

R74G
scaled log2 fold change [1]: 0.597
scaled log2 fold change [2]: -0.839

R74D
scaled log2 fold change [1]: 0.558
scaled log2 fold change [2]: 1.28

R74A
scaled log2 fold change [1]: -0.255
scaled log2 fold change [2]: -0.8

I72S
scaled log2 fold change [1]: -0.00568
scaled log2 fold change [2]: 0.815

I72R
scaled log2 fold change [1]: -0.783
scaled log2 fold change [2]: 0.539

I72N
scaled log2 fold change [1]: 0.0538
scaled log2 fold change [2]: -0.293

I72M
scaled log2 fold change [1]: -0.0135
scaled log2 fold change [2]: 0.0709

I72L
scaled log2 fold change [1]: -0.315
scaled log2 fold change [2]: -0.275

I72Q
scaled log2 fold change [1]: -0.00335
scaled log2 fold change [2]: 0.0078

I72Y
scaled log2 fold change [1]: -1.04
scaled log2 fold change [2]: -0.583

I72V
scaled log2 fold change [1]: -0.116
scaled log2 fold change [2]: -1.01

I72K
scaled log2 fold change [1]: 0.155
scaled log2 fold change [2]: -0.273

I72T
scaled log2 fold change [1]: -0.0209
scaled log2 fold change [2]: -0.405

I72P
scaled log2 fold change [1]: 0.991
scaled log2 fold change [2]: 1.28

I72W
scaled log2 fold change [1]: 0.00502
scaled log2 fold change [2]: 1.02

G76I
scaled log2 fold change [1]: 0.0447
scaled log2 fold change [2]: -0.0276

G76D
scaled log2 fold change [1]: 0.21
scaled log2 fold change [2]: 1.47

G76R
scaled log2 fold change [1]: -0.0307

G76P
scaled log2 fold change [1]: 0.585
scaled log2 fold change [2]: 0.000649

G76F
scaled log2 fold change [1]: -0.264
scaled log2 fold change [2]: -0.273

G76T
scaled log2 fold change [1]: 0.217

G76H
scaled log2 fold change [1]: 0.293
scaled log2 fold change [2]: -0.385

G76L
scaled log2 fold change [1]: 0.0165
scaled log2 fold change [2]: -0.41

G76Y
scaled log2 fold change [1]: -0.241
scaled log2 fold change [2]: 0.296

G76S
scaled log2 fold change [1]: 0.164

G76K
scaled log2 fold change [1]: -0.353
scaled log2 fold change [2]: -0.04

G76C
scaled log2 fold change [1]: 0.377
scaled log2 fold change [2]: 0.277

G76N
scaled log2 fold change [1]: -0.0936
scaled log2 fold change [2]: -0.272

G76M
scaled log2 fold change [1]: 0.321
scaled log2 fold change [2]: -0.269

G76E
scaled log2 fold change [1]: -0.688
scaled log2 fold change [2]: 0.0105

G76V
scaled log2 fold change [1]: 0.401
scaled log2 fold change [2]: -0.808

G76A
scaled log2 fold change [1]: -0.303
scaled log2 fold change [2]: -0.122

G83T
scaled log2 fold change [1]: 0.0201
scaled log2 fold change [2]: -0.4

G83K
scaled log2 fold change [1]: 0.72
scaled log2 fold change [2]: 0.427

G83E
scaled log2 fold change [1]: 0.881
scaled log2 fold change [2]: 0.975

G83F
scaled log2 fold change [1]: 0.576
scaled log2 fold change [2]: 0.231

G83N
scaled log2 fold change [1]: 0.304
scaled log2 fold change [2]: -0.106

G83W
scaled log2 fold change [1]: 0.275
scaled log2 fold change [2]: -0.151

G83M
scaled log2 fold change [1]: 0.483
scaled log2 fold change [2]: 0.859

G83Y
scaled log2 fold change [1]: 0.73
scaled log2 fold change [2]: 0.383

G83I
scaled log2 fold change [1]: 0.557
scaled log2 fold change [2]: 0.712

G83A
scaled log2 fold change [1]: 0.184
scaled log2 fold change [2]: -0.672

G83P
scaled log2 fold change [1]: 0.126
scaled log2 fold change [2]: -0.345

G83S
scaled log2 fold change [1]: 0.0697
scaled log2 fold change [2]: -1.34

G83L
scaled log2 fold change [1]: 0.777
scaled log2 fold change [2]: 1.06

G83H
scaled log2 fold change [1]: 0.285
scaled log2 fold change [2]: -0.572

G83Q
scaled log2 fold change [1]: 0.455
scaled log2 fold change [2]: 0.716

G83C
scaled log2 fold change [1]: 0.0146
scaled log2 fold change [2]: 0.00891

G83D
scaled log2 fold change [1]: 0.697
scaled log2 fold change [2]: 0.804

G83R
scaled log2 fold change [1]: 0.756
scaled log2 fold change [2]: 0.39

G83V
scaled log2 fold change [1]: 0.0583
scaled log2 fold change [2]: 0.224

T78K
scaled log2 fold change [1]: 0.447
scaled log2 fold change [2]: -1.09

T78D
scaled log2 fold change [1]: 0.00307
scaled log2 fold change [2]: -0.427

T78H
scaled log2 fold change [1]: -0.378
scaled log2 fold change [2]: 1.01

T78I
scaled log2 fold change [1]: -0.229

T78G
scaled log2 fold change [1]: -0.0398
scaled log2 fold change [2]: 0.179

T78E
scaled log2 fold change [1]: 0.171
scaled log2 fold change [2]: 2.14

T78Q
scaled log2 fold change [1]: 0.0403
scaled log2 fold change [2]: -0.00407

T78V
scaled log2 fold change [1]: 0.108
scaled log2 fold change [2]: -0.249

T78Y
scaled log2 fold change [1]: -0.386
scaled log2 fold change [2]: -0.209

T78C
scaled log2 fold change [1]: -0.0788

T78N
scaled log2 fold change [1]: -0.0446
scaled log2 fold change [2]: -0.273

T78S
scaled log2 fold change [1]: 0.0645
scaled log2 fold change [2]: 0.487

T78P
scaled log2 fold change [1]: -0.0243
scaled log2 fold change [2]: -0.366

T78L
scaled log2 fold change [1]: -0.709
scaled log2 fold change [2]: 0.584

T78R
scaled log2 fold change [1]: -0.905
scaled log2 fold change [2]: -0.932
